# Measurements from patent US20240043505A1 (UNIVERSITY OF PITTSBURGH OF THE COMMONWEALTH SYSTEM OF …, published 2024).
# Target: SARS-CoV-2 spike receptor-binding domain (RBD) (SARS-CoV-2, UniProt P0DTC2 319-541)
# Experiment: indirect ELISA on coated RBD ('ELISA affinity')
row,Binder,IC50 [nM]
1,Nb43 (VHH) VHH: EVQLVESGGGLVQAGGSLRLTCAASGRTFSSSTMDMGWFRQAPGKEREFVAVDAWNDGRTYYADSVKGRFTISRDNAKNTLYLQMNSLKPEDTAIYYCNLRQGCSYNGCDEYWGQGTQVTVSS,664
2,Nb62 (VHH) VHH: HVQLVESGGGLVQAGGSLRLTCAASGRTFSSSTMDMGWFRQAPGKEREFVAVDAWNDGRTYYADSVKGRFTISRDNAKNTLYLQMNSLKPGDTAVYYCHAVDVSVGGDYWGQGTQVTVSS,85.7
3,Nb48 (VHH) VHH: HVQLVESGGGLVQAGGSLRLSCAASGSIFRHYNMGWFRQAPGKEREFVSAISWTNIGTYYADSVKGRFSISRDNNRNTAYLEMNSLKPEDTAVYYCAADRSEFGSRLYSDENEYDYWGQGTQVTVSS,1.08
4,Nb18 (VHH) VHH: DVQLVESGGGLVQAGGSLRLSCAASGRTFSSYNVGWFRQAPGKEREFVAFIRWSGTSTYYADSVKGRFTISRDNAKNTVYLQMNSLKPEDTAVYYCAATSRTMIHTSQAMPINWDYWGQGTQVTVSS,0.57
5,Nb100 (VHH) VHH: EVQLVESGGGLVQAGGSLRLSCAASGLTFSSYNMGWFRQAPGKEREFVAFIRWSGTSTYYADSVKGRFTISRDTAKNTVYLQMNSLKLEDTAVYYCAATSRTMIHTSQTMRINWDYWGQGTQVTVSS,1.04
6,Nb84 (VHH) VHH: DVQLVESGGGLVQAGGSLRLSCAASGRTFSSYSMGWFRQAPGKEREFVAFIRWSGTSTYYADSVKGRFTISRDNAKNTVYLQMNSLKPDDTAVYYCAASSRTMNTISQTMRINWDYWGQGTQVTVSS,0.53
7,Nb2 (VHH) VHH: QVQLVESGGGLVQAGGSLRLSCAASGRTFSIYNMGWFRQAPGKEREFVIHMNWSNGNTATAASVKDRFTISRDNAKNTVYLQMSSLKPEDTAVYYCHATTNDYDYWGQGTQVTVSS,4.82
8,Nb46 (VHH) VHH: QVQLVESGGGLVQAGGSLRLSCAVSGSTLGINAIGWYRQPPGKQRELVASISSLGTTLYAESVKGRFAISRDNAKNTGYLQMNSLKPDDTAVYYCNMRTPYMRDYWGQGTQVTVSS,25.9
9,Nb58 (VHH) VHH: QVQLVESGGGLVQAGGSLRLSCAASGRDFSSTVMGWFRQAPGKERELVAWMTVTYDITYYADSVKGRFTISKDNAKNTVYLQANSLKPDDTAVYYCASGALRVGSFSPDYWGQGTQVTVSS,2.68
10,Nb37 (VHH) VHH: QVQLVESGGGLVQTGGSLRLSCAASGRTFSNYVMGWFRQAPGKEREFVSSIEWNSENTFYANSVKGRFTISRDNAKNTVYLQMNSLKAEDTAVYYCAADRGSSYYYTRASEYTYWGQGTQVTVSS,0.38
11,Nb24 (VHH) VHH: QVQLVESGGGLVQAGGSLRLTCAASGGTFSTSTMDMGWFRQAPGKEREFVALDSWNGGRTYYADSVKGRFTISRDNAKNTLYLQMNSLKPEDTAVYYCAADTYSNYEKDDSWGYWGQGTQVTVSS,0.77
12,Nb29 (VHH) VHH: HVQLVESGGGLVQAGGSLRLTCAASGGTFSTSTMDMGWFRQAPGKEREFVAVDSWNDGRAYYADSVKGRFTISRDNAKNTLYLQMNSLKPEDTAVYYCAAETYSNYEKAYSWGYWGQGTQVTVSS,1.25
13,Nb32 (VHH) VHH: DVQLVESGGGLVQAGGSLRLSCAASGRTFSSDTMDMGWFRQAPGKEREFVALHSWNGGKTYYADSVKGRFTISRDNAKNTLYLQMNNLKPEDTAVYYCAAETYTLYEKDSSWGYWGQGTQVTVSS,2.17
14,Nb28 (VHH) VHH: HVQLVESGGGLVQAGGSLRLSCAASGRTFSTSTMDMGWFRQAPGKEREFVGADSWNDGRTYYADSVKGRFTISRDNAKNTLYLQMNNLKPEDTAVYYCAAETYSLYEKSDSWGYWGQGTQVTVSS,0.92
15,Nb26 (VHH) VHH: HVQLVESGGGLVQAGGSLRLTCAASGRTFSISTMDMGWFRQAPGKEREFVAADAWNDGRTYYADSVKGRFTISRDNAKNTLYLQMNSLKPEDTAVYYCTADTYSNYKKDDSWGYWGQGTQVTVSS,0.92
16,Nb42 (VHH) VHH: HVQLVESGGGLVQAGESLRLSCVASGSIFSINAMGWFRQAPGKQRELVASISNIGTTIYAESVKGRFTISRDNAKNTADLQMNSLKPEDTAIYYCNLRQGCSYNGCDEYWGQGTQVTVSS,0.66
17,Nb60 (VHH) VHH: HVQLVESGGGLVQAGDSLRLSCAASERTNINYAMGWFRQAPGKERDFVAAIGWNGSIIKYAESVKGRFTISRDDAKNTVSLQMNSLKPEDTAVYYCAARIGSIANLQPREYEFAYWGQGTQVTVSS,138
18,Nb41 (VHH) VHH: DVQLVESGGGLVQAGGSLRLSCAASGFTFSNYVMYWGRQAPGKGREWVSGIDSDGSDTAYASSVKGRFTISRDNAKKTLYLQMNDLKPEDTALYYCVKSKDRYGSPWTRSEFEDYWGQGTQVTVSS,0.2
19,Nb3 (VHH) VHH: HVQLVESGGGLVQAGGSLRLSCVASGSGFEPNAMGWYRQAPGKQRELVAGITSGGNTNYADSVKGRFTISRDNVKNTVYLQMNSLKPEDTAVYYCNAVAPRINPRGSPTNYWGQGTQVTVSS,0.48
20,Nb4 (VHH) VHH: QVQLVESGGGLVQAGGSLRLSCVASGSGFEPNAMGWYRQAPGKQRELVAGITSGGNANYADSVKGRFTISRDNVKNTVYLQMNSLKPEDTAVYYCNAVGPRFNPRGSPTNYWGQGTQVTVSS,0.67
21,Nb15 (VHH) VHH: EVQLVESGGGLVAAGGSLRLSCVPSTNIFSANAMGWYRQAPGKQRELVASITSGGNTNYADSVKGRFTISRDNADTVILQMNSLKPEDTAVYYCKGTAYSTTYNSVRDYWGQGTQVTVSS,0.47
22,Nb16 (VHH) VHH: DVQLVESGGGLVQAGESLRLSCAASGDMFSSNAMAWYRQAPGKQRELVASITSGGNTNYADSVKGRFTISRDNAKNTVYLQMDSLKPEDTAVYYCNGVAYDYSWGRPRNFWGQGTQVTVSS,0.37
23,Nb39 (VHH) VHH: QVQLVESGGGLVQAGGSLRLSCAASGRTFRFSAIDWYRQAPGQQREFVASISTSGRISYGHFVKGRFTISRDNAKNTMYLQMNSLKPEDTAVYYCHLAQPDVFGGGDYWGQGTQVTVSS,1.49
24,Nb55 (VHH) VHH: DVQLVESGGGLVQAGGSLRLSCAASGRTFGSTMAWFRQAPGKERDFVAAITWSADRISYADSVKGRFTISRDNDKNIVHLQMNSLKPEDTAVYVCAARASSNTYDDPRSFAFWGQGTQVTVSS,2.24
